Laboratory results as given in patent publication US7829301B2, “Screening assays for binding antagonists of the AMD-associated variant of factor H (H384)” (The University of Manchester, priority 2006, dated 2010).

Target: T1, full length FH (Homo sapiens, UniProt P08603)
T1 construct: Purification of Full-Length Factor H from Human Serum; from tissue; host or cells: human serum
Assay: Binding of full length FH to untreated and N-glycosidase F-treated FMOD
Conditions: p<10-4 for all data points above zero
Description: FMOD was isolated from bovine articular cartilage (Heinghrd et al., (1986) J. Biol. Chem. 261, 13866-13872) and recombinant CRP was obtained from Calbiochem. Deglycosylated FMOD was prepared by treatment with N-glycosiadase F (Roche Applied Science) as previously described (Sjöberg et al. (2005) J. Biol. Chem. 280, 32301-32308).
CRP or FMOD was coated overnight at 4° C. onto microtiter plates (Maxisorp, Nunc) at a concentration of 10 μg/ml in 75 mM sodium carbonate buffer, pH 9.6. Wells treated only with coating buffer or 1% (w/v) BSA (Sigma) in coating buffer (for the assays involving FMOD) were used as negative controls. Between each step the wells were washed extensively with 50 mM Tris-HCl, 150 mM NaCl, 0.1% (v/v) Tween 20, pH 7.5. All wells were blocked with 1% (w/v) BSA (Sigma) in phosphate buffered saline (Invitrogen) for 1 hour at 37° C. […] The amount of bound protein was assessed using a goat polyclonal anti-FH antibody (Quidel, Cat # A312) followed by HRP-labeled anti-goat secondary antibodies (Dako) and the OPD development kit (Dako). Detection of biotinylated protein was performed using a StreptABComplex/HRP-kit from Dako, and in both cases the absorbance at 490 nm was measured to quantify protein binding.

T1 sequence (P08603 19-1231): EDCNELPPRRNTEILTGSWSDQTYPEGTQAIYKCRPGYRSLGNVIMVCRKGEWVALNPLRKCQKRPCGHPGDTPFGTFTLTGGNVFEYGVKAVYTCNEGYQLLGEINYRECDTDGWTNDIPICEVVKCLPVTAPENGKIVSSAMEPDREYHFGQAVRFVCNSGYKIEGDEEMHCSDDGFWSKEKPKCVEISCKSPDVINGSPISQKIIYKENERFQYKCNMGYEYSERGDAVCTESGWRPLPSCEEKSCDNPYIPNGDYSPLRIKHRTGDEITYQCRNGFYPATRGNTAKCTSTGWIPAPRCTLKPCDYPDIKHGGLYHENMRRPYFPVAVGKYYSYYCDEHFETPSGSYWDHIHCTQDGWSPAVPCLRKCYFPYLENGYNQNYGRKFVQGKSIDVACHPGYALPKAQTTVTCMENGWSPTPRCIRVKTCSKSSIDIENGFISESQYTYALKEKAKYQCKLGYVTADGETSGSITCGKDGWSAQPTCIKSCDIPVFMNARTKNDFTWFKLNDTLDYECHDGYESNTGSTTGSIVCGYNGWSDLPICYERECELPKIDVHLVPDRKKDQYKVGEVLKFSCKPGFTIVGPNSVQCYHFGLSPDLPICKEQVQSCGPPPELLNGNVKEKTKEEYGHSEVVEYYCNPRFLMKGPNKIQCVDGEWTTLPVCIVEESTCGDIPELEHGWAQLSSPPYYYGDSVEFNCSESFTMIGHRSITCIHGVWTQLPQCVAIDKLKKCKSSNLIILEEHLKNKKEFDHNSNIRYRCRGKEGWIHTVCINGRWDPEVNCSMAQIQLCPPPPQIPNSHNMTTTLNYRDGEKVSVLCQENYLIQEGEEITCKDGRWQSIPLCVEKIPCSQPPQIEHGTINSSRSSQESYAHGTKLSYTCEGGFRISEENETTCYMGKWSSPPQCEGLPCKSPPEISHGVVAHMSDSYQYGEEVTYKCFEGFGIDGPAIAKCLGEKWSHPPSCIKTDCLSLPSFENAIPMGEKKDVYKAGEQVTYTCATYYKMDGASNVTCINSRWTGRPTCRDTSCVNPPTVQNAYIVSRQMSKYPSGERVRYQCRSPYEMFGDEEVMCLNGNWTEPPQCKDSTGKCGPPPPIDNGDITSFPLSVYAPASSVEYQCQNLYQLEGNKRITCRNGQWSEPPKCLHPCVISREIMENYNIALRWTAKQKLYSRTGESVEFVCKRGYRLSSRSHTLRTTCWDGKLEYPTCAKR

B1: deglycosylated FMOD: fibromodulin from bovine articular cartilage treated with N-glycosidase F to remove N-linked oligosaccharides including keratan sulphate (protein)
chain: QYEEDSHWWFQFLRNQQSTYDDPYDPYPYEPYEPYPYGGEEGPAYAYGSPPQPEPRDCPQECDCPPNFPTAMYCDNRNLKYLPFVPSRMKYVYFQNNQISSIQEGVFDNATGLLWIALHGNQITSDKVGKKVFSKLRHLERLYLDHNNLTRIPSPLPRSLRELHLDHNQISRVPNNALEGLENLTALYLHHNEIQEVGSSMKGLRSLILLDLSYNHLRKVPDGLPSALEQLYLEHNNVFSVPDSYFRGSPKLLYVRLSHNSLTNNGLASNTFNSSSLLELDLSYNQLQKIPPVSTNLENLYLQGNRINEFSISSFCTVVDVMNFSKLQVLRLDGNEIKRSAMPADAPLCLRLASLIEI
binding of FH compared to keratan sulphate-containing FMOD: significantly better
